In patent US20250313612A1 one finds RSV-A2 IC50 and HMPV-A1 IC50 data, which are given here for one substance.

Assay [1] concerns the target RSV F protein of subtype A (strain A2) on recombinant mKate-RSV (Respiratory syncytial virus subtype A (strain A2)) (UniProt P03420). Put plainly: cell-based or functional assay.
For assay [2], the target named is human metapneumovirus (HMPV) F protein on GFP-expressing hMPV (NL/1/00, A1 sublineage) (human metapneumovirus). Put plainly: cell-based or functional assay.

Sequence of RSV F protein of subtype A (strain A2) on recombinant mKate-RSV (Respiratory syncytial virus subtype A (strain A2)) (P03420 26-574): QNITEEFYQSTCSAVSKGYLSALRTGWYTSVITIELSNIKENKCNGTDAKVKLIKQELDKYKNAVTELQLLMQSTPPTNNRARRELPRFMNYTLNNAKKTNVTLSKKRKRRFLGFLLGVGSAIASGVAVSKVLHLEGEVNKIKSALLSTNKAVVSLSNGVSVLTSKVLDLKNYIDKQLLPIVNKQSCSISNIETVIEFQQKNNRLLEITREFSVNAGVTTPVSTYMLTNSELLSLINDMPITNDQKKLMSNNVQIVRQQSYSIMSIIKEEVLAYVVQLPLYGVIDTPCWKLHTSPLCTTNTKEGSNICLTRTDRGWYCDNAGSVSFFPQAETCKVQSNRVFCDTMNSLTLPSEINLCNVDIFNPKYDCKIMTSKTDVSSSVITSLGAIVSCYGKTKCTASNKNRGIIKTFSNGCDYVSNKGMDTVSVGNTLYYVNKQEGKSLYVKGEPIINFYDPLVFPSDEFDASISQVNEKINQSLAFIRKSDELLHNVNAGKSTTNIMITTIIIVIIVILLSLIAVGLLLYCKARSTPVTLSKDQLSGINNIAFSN

On to MPE8 (antibody), for which the RSV-A2 IC50 in assay [1] is 0.04 µg/mL. Moreover, in assay [2], the HMPV-A1 IC50 stood at 0.07 µg/mL.
